Like-named read-outs stand apart in the source and are kept apart here.
Key:
[1] = molecular target: HLA-B*5101 (Human); assay: competition with 125I-labelled standard peptide for purified HLA, gel filtration
[2] = molecular target: HLA-B*5401 (Human); assay: as above
[3] = molecular target: HLA-B*0702 (Human); assay: as above
[4] = molecular target: T1, HLA-DR7 (DRB1*0701) (human)
T1 chain 1: not shown
T1 chain 2: not shown

[5] = molecular target: HLA-A*0201 (human)
[6] = molecular target: HLA-A*1101 (human)
[7] = molecular target: HLA-B*5301 (Human); assay: competition with 125I-labelled standard peptide for purified HLA, gel filtration
[8] = molecular target: HLA-B*3501 (Human); assay: as above
[9] = molecular target: HLA-A*1101 (human); assay: competition with 125I-labeled standard peptide on purified HLA, gel filtration
[10] = molecular target: HLA-A*0301 (human); assay: as above
[11] = molecular target: HLA-A*0201 (Human); assay: competition with 125I-labelled probe peptide for purified HLA, gel filtration
[12] = remark: other sources report otherwise

Binder: LPVCQDHLEF (modifications not checked)
- binding affinity ratio (IC50 standard/IC50 test) [1, 12]: 0.0002
- binding affinity ratio (IC50 standard/IC50 test) [2, 12]: 0.0003
- binding affinity ratio (IC50 standard/IC50 test) [3, 12]: 0.0001

Binder: TTIMAKNEVFCVQPE (modifications not checked) [HCV NS5 2589 peptide 1283.51]
- binding affinity ratio (relative to standard peptide) [4, 12]: 0.0025

Binder: VAYYRGLDV (modifications not checked) [HCV peptide … (HCV polyprotein position 1420)]
- binding affinity ratio (IC50 of standard peptide / IC50 of test peptide) [5]: 0.0001

Binder: TSERSQPRGR (modifications not checked) [… (HCV polyprotein position 52, 10-mer)]
- binding affinity ratio (IC50 of standard peptide / IC50 of test peptide) [6]: 0.0001

Binder: RQEMGGNITRVESEN (modifications not checked) [HCV NS5 2243 peptide 1283.49]
- binding affinity ratio (relative to standard peptide) [4]: 0.0002

Binder: QPGYPWPLY (modifications not checked)
- binding affinity ratio (IC50 standard/IC50 test) [1]: 0.0002
- binding affinity ratio (IC50 standard/IC50 test) [2]: 0.0002
- binding affinity ratio (IC50 standard/IC50 test) [7]: 0.0001
- binding affinity ratio (IC50 standard/IC50 test) [3]: 0.0001

Binder: TGLTHIDAH (modifications not checked) [… (HCV polyprotein position 1568, 9-mer)]
- binding affinity ratio (IC50 of standard peptide / IC50 of test peptide) [6]: 0.0001

Binder: NPSVAATLGF (modifications not checked)
- binding affinity ratio (IC50 standard/IC50 test) [1]: 0.0002
- binding affinity ratio (IC50 standard/IC50 test) [2]: 0.0003
- binding affinity ratio (IC50 standard/IC50 test) [7]: 0.0001
- binding affinity ratio (IC50 standard/IC50 test) [3]: 0.0001
- binding affinity ratio (IC50 standard/IC50 test) [8]: 0.0001

Binder: TSMLTDPSH (modifications not checked) [… (HCV polyprotein position 2177, 9-mer)]
- binding affinity ratio (IC50 of standard peptide / IC50 of test peptide) [6]: 0.0001

Binder: TLPALSTGL (modifications not checked) [HCV peptide … (HCV polyprotein position 686)]
- binding affinity ratio (IC50 of standard peptide / IC50 of test peptide) [5]: 0.0003

Binder: PPPSWDQMW (modifications not checked)
- binding affinity ratio (IC50 standard/IC50 test) [1]: 0.0001
- binding affinity ratio (IC50 standard/IC50 test) [2]: 0.0002
- binding affinity ratio (IC50 standard/IC50 test) [7]: 0.0001
- binding affinity ratio (IC50 standard/IC50 test) [3]: 0.0001
- binding affinity ratio (IC50 standard/IC50 test) [8]: 0.0002

Binder: YLLPRRGPR (modifications not checked) [HCV peptide … (HCV polyprotein position 35)]
- binding affinity ratio (IC50 of standard peptide / IC50 of test peptide) [9, 12]: 0.0005
- binding affinity ratio (IC50 of standard peptide / IC50 of test peptide) [10, 12]: 0.0054

Binder: LVNLLPAIL (modifications not checked) [HCV peptide … (polyprotein position 1884)]
- binding affinity ratio (IC50 of standard peptide / IC50 of test peptide) [11]: 0.0002

Binder: QPEYDLELI (modifications not checked)
- binding affinity ratio (IC50 standard/IC50 test) [1]: 0.0002
- binding affinity ratio (IC50 standard/IC50 test) [2]: 0.0002
- binding affinity ratio (IC50 standard/IC50 test) [7]: 0.0001
- binding affinity ratio (IC50 standard/IC50 test) [3]: 0.0001
- binding affinity ratio (IC50 standard/IC50 test) [8]: 0.0002

Binder: VAYQATVCAR (modifications not checked) [… (HCV polyprotein position 1592, 10-mer)]
- binding affinity ratio (IC50 of standard peptide / IC50 of test peptide) [6]: 0.0038

Binder: YVPESDAAAR (modifications not checked) [HCV peptide … (HCV polyprotein position 1939)]
- binding affinity ratio (IC50 of standard peptide / IC50 of test peptide) [9]: 0.0001
- binding affinity ratio (IC50 of standard peptide / IC50 of test peptide) [10]: 0.0003

Binder: WLLSPRGSR (modifications not checked) [HCV peptide … (HCV polyprotein position 96)]
- binding affinity ratio (IC50 of standard peptide / IC50 of test peptide) [9]: 0.0005
- binding affinity ratio (IC50 of standard peptide / IC50 of test peptide) [10]: 0.0008

Binder: TLHGPTPLL (modifications not checked) [HCV peptide … (HCV polyprotein position 1622)]
- binding affinity ratio (IC50 of standard peptide / IC50 of test peptide) [5]: 0.007

Binder: VAYQATVCA (modifications not checked) [HCV peptide … (HCV polyprotein position 1592)]
- binding affinity ratio (IC50 of standard peptide / IC50 of test peptide) [5]: 0.0005

Binder: TSERSQPRGR (modifications not checked) [HCV peptide … (HCV polyprotein position 52)]
- binding affinity ratio (IC50 of standard peptide / IC50 of test peptide) [9]: 0.0001
- binding affinity ratio (IC50 of standard peptide / IC50 of test peptide) [10]: 0.0003
